Data on 141 substances can be found in the supplement of paper PMC12042874.

A short description of the data set: amyloid nucleation score (Sup35N fusion, yeast selection) (log enrichment); library NNK2; higher = more nucleation; inactive = no reads after selection. In short, it runs like this: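 After 24 hours of induction with 100 μM copper sulfate, psi-negative yeast expressing peptides of 20 random codons fused to Sup35N were grown for 7 days at 30°C on medium lacking adenine and uracil. Input and output plasmid inserts were sequenced with Illumina, and sequences with under 100 input reads were discarded. Scores for nucleation are the DiMSum log enrichment of output over input reads, centred on the mode score of non-aggregating sequences.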

± gives the uncertainty stated by the source.

As for GPFLMSVTLVYLFVFMFERL, the amyloid nucleation score was -0.769 ± 0.36.

Regarding ECRMRLVFHRSIGYTTQCFV, the amyloid nucleation score came out at 3.37 ± 0.064.

In the case of RTHPTCSVCVKLYPLGTPRR, the amyloid nucleation score stood at 2.38 ± 0.13.

The substance HFDFGFIGRDVIDVIDVRTN gave an amyloid nucleation score of 0.039 ± 0.46.

With WRRFRFLLPWSLRPMS, the amyloid nucleation score entry was “inactive”.

VPGRYFSQELVFTLFLGMAK returned an amyloid nucleation score of -1.43 ± 0.61.

For YYGRSSLRNRMDVSDVQYPG, the amyloid nucleation score is -0.67 ± 1.1.

For MLLFSLWGNYAGQVPWDRVG, the amyloid nucleation score was -0.513 ± 0.48.

Regarding NGRTRCNPFLFGFKGRPGEC, the amyloid nucleation score was -1.34 ± 1.1.

As to LQNFRCTGCVLFCMHICPAM, the amyloid nucleation score worked out at 4.84 ± 0.075.

With IKGTQSVRDTVSLVVIKDVW, the amyloid nucleation score is 0.627 ± 0.4.

Take HEQLW: the amyloid nucleation score is -0.243 ± 0.48.

As to PLGSNACPTHFSCD, the amyloid nucleation score entry was “inactive”.

TPSDLVDINMDHAFCELCRR had an amyloid nucleation score of 0.413 ± 0.45.

Substance WTYGVTRLSSLCSAIDLSLG came in with an amyloid nucleation score of -0.598 ± 1.1.

HKETSFDGHFAICWCYTCRH registered an amyloid nucleation score of 5.216 ± 0.046.

LSVLTNDSGLFKFGFIRCVW displayed an amyloid nucleation score of -1.21 ± 0.75.

SSAYQMSEY had an amyloid nucleation score of 0.072 ± 1.1.

With WELHMI, the amyloid nucleation score was -0.61 ± 1.1.

In the case of QYNKCSMALVFCYCS, the amyloid nucleation score was 8.26 ± 0.038.

For the substance LRSEFRFIYLRLTWKVR, the amyloid nucleation score result was “inactive”.

Regarding YMFYPNCRSRC, the amyloid nucleation score worked out at 0.59 ± 0.15.

For the substance VGDWVQQVVFTRRSTSSRRV, the amyloid nucleation score result is “inactive”.

Take HLLHVSGLDEIEMWTGDF: the amyloid nucleation score was -0.332 ± 0.39.

Turning to IHIWGSLSIDIEFVCGMKAR, the amyloid nucleation score amounted to 1.04 ± 0.56.

KSPFVICGKRDVRK showed an amyloid nucleation score of -1.28 ± 1.1.

The substance GRVNLDRCSSWVGWFVGCLL came in with an amyloid nucleation score of -1.09 ± 0.78.

Substance SHIPIWRKLSVQFSVKIVLE yielded an amyloid nucleation score of -0.637 ± 1.1.

Regarding RSVLWSSMVGV, the amyloid nucleation score was found to be 1.39 ± 0.44.

In the case of WYKRVVFPMP, the amyloid nucleation score was -0.442 ± 1.

For the substance IVFLCSRKCNVNMYGL, the amyloid nucleation score was 10.7 ± 0.071.

On to MHQVFIKEYAEYYRVCERRM, for which the amyloid nucleation score was determined as 2.05 ± 0.064.

In turn, HLLRKDVPQAWT showed an amyloid nucleation score of 3.29 ± 0.11.

With LPLKNRVVDTCRKRFVGEVG, the amyloid nucleation score was -0.19 ± 1.

As for CKEYMMIFMTIIKVYLNTYL, the amyloid nucleation score was -0.698 ± 0.78.

With RFDSDNTFDPGRWYSCSQDA, the amyloid nucleation score is -0.346 ± 0.53.

Consider IFCRIDYIYVYLHHVYVTVQ, for which the amyloid nucleation score worked out at 5.228 ± 0.036.

Consider CLGNHIDSCVVFLTDAESSS, for which the amyloid nucleation score is -0.484 ± 0.65.

NYMYGLNSVKSVGWLSDI came in with an amyloid nucleation score of 0.069 ± 0.46.

SHRCELKWTGLVMNYKVVHC had an amyloid nucleation score of 1.71 ± 0.25.

LGPTVYDFLHMCFYFRA came in with an amyloid nucleation score of 4.74 ± 0.065.

In turn, FRIHIWYGY had an amyloid nucleation score of 0.244 ± 0.17.

FISRVMVSGVLTGLAWPM yielded an amyloid nucleation score of 0.151 ± 0.43.

FRVKRL had an amyloid nucleation score of -1.19 ± 1.1.

In turn, YVVYMVFGR came in with an amyloid nucleation score of 6.323 ± 0.055.

MKGACLRGYEVLSMGQSTSY: the amyloid nucleation score is 0.404 ± 0.8.

DPWRGGPVSSH came in with an amyloid nucleation score of 1.18 ± 0.23.

Take DADIRQ: the amyloid nucleation score was 0.764 ± 0.47.

The substance EENGCS showed an amyloid nucleation score of 1.22 ± 0.24.

In turn, APVLSDN registered an amyloid nucleation score of -0.07 ± 0.49.

DYIIVRMCADILSGSVHGAM showed an amyloid nucleation score of -0.068 ± 0.45.

In turn, ASPLQPLSGYVIVRVAPSIT yielded an amyloid nucleation score of 0.266 ± 0.51.

YSYTTVFNIASNTTNELATC: the amyloid nucleation score was -0.375 ± 0.2.

With GGKTYNSTVVDVCDHAFCDY, the amyloid nucleation score is -0.924 ± 1.1.

Substance ESHFCLLATVMKDNLTVGSM gave an amyloid nucleation score of -0.578 ± 0.45.

Regarding YADLISSWVILGWFQRKTLF, the amyloid nucleation score was determined as 0.228 ± 1.

TSAENRLMMAEARKYCVRSF registered an amyloid nucleation score of 3.66 ± 0.087.

For the substance RRFEPKVRKKHQGLFLWYSV, the amyloid nucleation score turned out to be 0.028 ± 0.25.

On to DRLLHDTE, for which the amyloid nucleation score is -0.866 ± 0.76.

On to RITDYRCLTMNKGQSARNQG, for which the amyloid nucleation score result was “inactive”.

Consider SASLSTRVNNTPLPALTRWV, for which the amyloid nucleation score worked out at 0.708 ± 0.62.

For the substance TMIRYVERMVDNLFRNCRLP, the amyloid nucleation score turned out to be 0.827 ± 0.2.

The substance FYSVHSCLYVLIHRVQHACC displayed an amyloid nucleation score of -0.235 ± 1.1.

KCVRTTVLHNRRVPDGLTMP: the amyloid nucleation score was 0.678 ± 0.33.

The substance CGPPVIWVLLCKLGMFWTVS yielded an amyloid nucleation score of -0.555 ± 0.55.

As to DGINLDICCCNTDKLNIDRI, the amyloid nucleation score result is “inactive”.

The substance TDGVLFQLVDSKFV yielded an amyloid nucleation score of -1.25 ± 0.64.

Turning to NKNRKQSLDKPS, the amyloid nucleation score was -0.493 ± 1.1.

On to YKFRYWAYFFSDVAGVI, for which the amyloid nucleation score is -1.75 ± 0.75.

Consider NPWVRFVVSCLYAVSQQCGL, for which the amyloid nucleation score turned out to be 4.66 ± 0.07.

RETLAFA: the amyloid nucleation score was -0.329 ± 0.33.

As to GSLKCDAHLG, the amyloid nucleation score stood at 0.339 ± 0.18.

YVSECVANA: the amyloid nucleation score result was “inactive”.

CTSVKQNDLKGSLIN: the amyloid nucleation score entry was “inactive”.

As for RPSNKT, the amyloid nucleation score turned out to be 0.761 ± 0.56.

As for PSRYAVLLCFGGVDTNVGIT, the amyloid nucleation score is 4.967 ± 0.049.

In turn, MSPYLWYGWLEAGLLGIRTL registered an amyloid nucleation score of 0.871 ± 0.34.

In the case of GTRTISLKGPSGYYA, the amyloid nucleation score is -0.689 ± 0.41.

For SFIWHLPFVC, the amyloid nucleation score was 1.24 ± 0.4.

For the substance YFPIASALNCSLGCARCCES, the amyloid nucleation score was 0.669 ± 0.74.

As for LALNLQNCTRGGFTILTVS, the amyloid nucleation score result was “inactive”.

The substance FFGLFFNFLLMLINLPKCIV came in with an amyloid nucleation score of -1.78 ± 0.75.

In turn, VITGYCA gave an amyloid nucleation score of 2.48 ± 0.094.

MFLRRCSSRVDSKNGHSSKD displayed an amyloid nucleation score of 0.107 ± 0.39.

VVRHSLKRL showed an amyloid nucleation score of -0.228 ± 1.1.

DISYGSSDINHCLVTYMWQC came in with an amyloid nucleation score of 0.192 ± 1.

CLYPLSVDVVSFHYCTTCCE: the amyloid nucleation score worked out at 0.141 ± 0.33.

As to IFNDVIFNLRFC, the amyloid nucleation score worked out at 7.443 ± 0.054.

The substance HFMIVSLDGNHVMTTAAGVA showed an amyloid nucleation score of 0.233 ± 0.43.

With GCFSCHIWFTVRFYWTLYVP, the amyloid nucleation score entry is “inactive”.

In the case of WLDSQWNLYLDLYHLYRSCR, the amyloid nucleation score was determined as 3.22 ± 0.12.

With RSARDYSVLKSRILSSAGLG, the amyloid nucleation score was determined as 1.32 ± 0.39.

Take NLIFI: the amyloid nucleation score result was “inactive”.

MYFNSRSNYEYAYCWLFIVF displayed an amyloid nucleation score of 0.492 ± 0.44.

In turn, WFRKGHHVVT yielded an amyloid nucleation score of 1.08 ± 0.41.

As to MLTFF, the amyloid nucleation score was -0.409 ± 0.76.

The substance VLPMVRMSINIVVGCWSQKL returned an amyloid nucleation score of 3.79 ± 0.081.

In the case of VTKILCSRTWGKSG, the amyloid nucleation score stood at 0.325 ± 0.44.

Consider IYNVSQLRTGTDMFNL, for which the amyloid nucleation score is 0.721 ± 0.51.

The substance MFVLFWVVNSTDLCGTAPLV had an amyloid nucleation score of 0.205 ± 0.61.

KPIVITLLLSDCVRM yielded an amyloid nucleation score of 9.498 ± 0.026.

Substance TFSQYTWEFIYN registered an amyloid nucleation score of 3.68 ± 0.11.

With FRTQAF, the amyloid nucleation score worked out at 1.16 ± 0.47.

In the case of SVLELYRTSIFYLRLVSNLL, the amyloid nucleation score was 3.52 ± 0.079.

For the substance VNSMAMLCLRICIGTHQMCG, the amyloid nucleation score amounted to 5.03 ± 0.054.

In the case of WHENMSGTPKLASTNNGSKR, the amyloid nucleation score is 2.61 ± 0.18.

In turn, SACRMNWEVGGIGLSVPLCG registered an amyloid nucleation score of 0.421 ± 0.2.

On to KIISNSFCSPCINSILPSKM, for which the amyloid nucleation score was 6.826 ± 0.053.

In the case of SRNSLLRS, the amyloid nucleation score was -0.924 ± 0.45.

FISHIYLNESQQKSSALNTL had an amyloid nucleation score of -1.32 ± 0.53.

Substance YYEIIWYTFQEKLSGCSSCS displayed an amyloid nucleation score of -2.02 ± 0.75.

With FSAEIRGTQRMLQRLSLYKR, the amyloid nucleation score worked out at 1.61 ± 0.092.

The substance YSKAAIFMESHFLASGNHKA had an amyloid nucleation score of 4.67 ± 0.1.

ASFMSISVYND had an amyloid nucleation score of -0.32 ± 0.63.

PFTMSVFKSYKIAQRSSWAW came in with an amyloid nucleation score of 2.5 ± 0.089.

In turn, STSRFTMQQRRKLYKSFCWR returned an amyloid nucleation score of -0.665 ± 1.1.

The substance VVFRIVNRACVMYGVTGGND showed an amyloid nucleation score of -0.915 ± 0.63.

In turn, GSIYTCCGAGRKQNVGPKYL came in with an amyloid nucleation score of 2.25 ± 0.1.

As to VRAQKRSWGQGSL, the amyloid nucleation score worked out at 1.23 ± 0.14.

The substance RNSYALNINEM yielded an amyloid nucleation score of -0.4 ± 0.38.

FFMLYYGYLLSVRDSCSLCI: the amyloid nucleation score was -0.017 ± 0.76.

Substance RLMTVI came in with an amyloid nucleation score of -0.229 ± 0.28.

As for GSLARSTD, the amyloid nucleation score was 1.25 ± 0.15.

Regarding IGCLVYHIITRVFVFVSPLF, the amyloid nucleation score entry was “inactive”.

YLGLDARLI returned an amyloid nucleation score of 0.661 ± 0.8.

As to YCCFMSRHGSKWHYVNICIF, the amyloid nucleation score entry was “inactive”.

Substance WRNLDLK returned an amyloid nucleation score of -0.562 ± 1.1.

GLTLFVRSLALRNYVCDWSP returned an amyloid nucleation score of 0.149 ± 0.36.

As for VVSVCLLGHNDKVLSYAQLC, the amyloid nucleation score was determined as 0.071 ± 0.51.

CYSILFSLKQIDRLLITLPR had an amyloid nucleation score of -1.04 ± 0.5.

For the substance FVSGRVQLQASGLVRGNRWV, the amyloid nucleation score entry is “inactive”.

As to IFSHFILCKQAAVCTVNEFR, the amyloid nucleation score came to 5.08 ± 0.072.

Regarding FGAFVYWVFSIAYTLSRGSR, the amyloid nucleation score is -1.03 ± 0.6.

As to MLKSHVI, the amyloid nucleation score is -0.374 ± 0.32.

As to VIGAGCIEKQRTVEAGGCRG, the amyloid nucleation score is 1.23 ± 0.35.

GQYKTGVRGSRLNLPLMLTE had an amyloid nucleation score of 0.328 ± 0.19.

As to LYKAGIGILLTGVILVF, the amyloid nucleation score is -1.12 ± 0.6.

The substance SFGRAENNSSARDMYV came in with an amyloid nucleation score of -0.535 ± 0.28.

In turn, LKPCLRFFNIIT displayed an amyloid nucleation score of 3.44 ± 0.1.

Consider HWSAS, for which the amyloid nucleation score turned out to be 1.35 ± 0.47.

ADQWGTRVWPGWEFVLEVAA registered an amyloid nucleation score of 1.33 ± 0.31.
